B1: dynamin-2 (human Dyn2 isoform 1), wild type [human] / GST-tagged SH3 domain of endophilin [mouse] (parent complex)
chain 1: MGNRGMEELIPLVNKLQDAFSSIGQSCHLDLPQIAVVGGQSAGKSSVLENFVGRDFLPRGSGIVTRRPLILQLIFSKTEHAEFLHCKSKKFTDFDEVRQEIEAETDRVTGTNKGISPVPINLRVYSPHVLNLTLIDLPGITKVPVGDQPPDIEYQIKDMILQFISRESSLILAVTPANMDLANSDALKLAKEVDPQGLRTIGVITKLDLMDEGTDARDVLENKLLPLRRGYIGVVNRSQKDIEGKKDIRAALAAERKFFLSHPAYRHMADRMGTPHLQKTLNQQLTNHIRESLPALRSKLQSQLLSLEKEVEEYKNFRPDDPTRKTKALLQMVQQFGVDFEKRIEGSGDQVDTLELSGGARINRIFHERFPFELVKMEFDEKDLRREISYAIKNIHGVRTGLFTPDLAFEAIVKKQVVKLKEPCLKCVDLVIQELINTVRQCTSKLSSYPRLREETERIVTTYIREREGRTKDQILLLIDIEQSYINTNHEDFIGFANAQQRSTQLNKKRAIPNQGEILVIRRGWLTINNISLMKGGSKEYWFVLTAESLSWYKDEEEKEKKYMLPLDNLKIRDVEKGFMSNKHVFAIFNTEQRNVYKDLRQIELACDSQEDVDSWKASFLRAGVYPEKDQAENEDGAQENTFSMDPQLERQVETIRNLVDSYVAIINKSIRDLMPKTIMHLMINNTKAFIHHELLAYLYSSADQSSLMEESADQAQRRDDMLRMYHALKEALNIIGDISTSTVSTPVPPPVDDTWLQSASSHSPTPQRRPVSSIHPPGRPPAVRGPTPGPPLIPVPVGAAASFSAPPIPSRPGPQSVFANSDLFPAPPQIPSRPVRIPPGIPPGVPSRRPPAAPSRPTIIRPAEPSLLD
chain 2: not shown

We go through two variants from paper PMC9712776 (2022).

In this assay the parent is B1. Kind of assay: GST pulldown; 12 µg GST-endophilin-SH3, 6 µg purified Dyn2; parent: 1; read off a plot.
For the variant chain 1 S848A, the ratio to parent was ~1.1.
Under chain 1 S848E stands ~0.93.
